Measurements as given in patent US7977317B2, “Compositions and methods for modulating blood-brain barrier transport” (Raptor Pharmaceutical Inc., priority 2001, dated 2011).

Legend:
BBCEC monolayers [1] = assay: Accumulation of ligands in BBCEC monolayers; type: cell-based, bovine; details: native proteins (FIG. 13c)
Procedure: (§1) FIG. 7 illustrates the results of experiments where the ligands p97, Lf and Tf were heated or not heated prior to the binding study. In all cases, binding experiments were conducted in the transwell apparatus as described previously, with the exception that binding was conducted at either 4° C. or at 37° C. For the 37° C. trial, a separate experiment was conducted where the ligand was boiled for 30 mins then rapidly cooled prior to administration on the transwell plates.
(§2) FIG. 13 illustrates the transcytosis and accumulation of p97 and transferrin in BBCEC monolayers. FIG. 13a, Transcytosis experiments were performed at 37° C. (solid bars) or 4° C. (white bars). [^125I]-p97 or bovine [^125I]-holo-transferrin (1 mg/ml) was added to the upper side of the cell-covered filter. At the end of the experiment, radiolabelled proteins were measured in the lower chamber of each well by TCA precipitation (n=4). Controls were also performed at 37° C. with denatured [^125I]-p97 or bovine [^125I]-holo-transferrin boiled for 30 min (grey bars) (n=2); FIG. 13b, Biospecific interaction analysis was performed with native or boiled p97 for the indicated times. MAb L235 (5 μg) was immobilized on a sensor chip (SM5) using standard procedures incorporating NHS, EDC and ethanolamine. Native and boiled p97 (5 to 30 min) diluted at 1 mg/ml in Ringer/Hepes was cooled and injected into the BIAcore. The surface plasmon resonance response obtained for native p97 and boiled p97 was plotted (in relative units (RU)) as a function of time; FIG. 13c, The accumulation of both proteins into BBEC cells were also measured. Briefly, after incubation at 37° C. (solid bars) or 4° C. (white bars) with either [^125I]-protein, cells were washed four times with cold PBS. Accumulation of both denatured proteins (grey bars) was also measured at 37° C. Filters were then removed, and the radioactivity associated with the cells was quantified (n=3).
as §1, with “In” for “FIG. 7 illustrates the results of experiments where the ligands p97, Lf and Tf were heated or not heated prior to the binding study. In”

BBCEC monolayers [2] = assay: Transcytosis across BBCEC monolayers (in vitro BBB model); type: cell-based, bovine; details: 200-fold molar excess of competitor, [125I]-p97 25 nM (FIG. 15a, 15b)
Text: FIG. 10 assesses the ability of several agents to interfere with p97 transyctosis. FIG. 10a, transcytosis of I125-P97 was compared in the presence of cold p97 (5 micromolar), Lf (5 micromolar), and Tf (5 micromolar). […] FIG. 10c, RAP, a known poly-peptide inhibitor of the LDL-Receptor family was applied to the cells (25 micrograms/ml).
FIG. 11 examines the accumulation and transcytosis of p97. FIG. 11a, of [^125I]-p97, [^125I]-BSA and [^125I]-holo-transferrin one hour after i.v. injection. The radioactivity in brain was compared between the three compounds. (n=3); FIG. 11b, Accumulation of p97 and transferrin into the mouse brain parenchyma. In situ brain perfusion was performed with human [^125I]-p97 or [^125I]-holo-transferrin at a final concentration of 10 nM via a catheter inserted in the right common carotid artery. The volume of distribution (VD) of [^125I]-proteins were obtained in the whole brain homogenate (white bars), in brain capillaries (solid bars) and in brain parenchyma (hatched bars) after isolation of the right hemisphere and capillary depletion. Results were obtained for p97 (n=10) and for holo-transferrin (n=6); FIG. 11c, Transcytosis of p97 across BBCEC monolayers. Transcytosis experiments were performed 37° C. (open circles) and 4° C. (closed circles) with BBCEC monolayers. [^125I]-p97 (1 mg/ml) was added to the upper side of the cell-covered filter. One representative experiment is shown (n=4); FIG. 11d, Preferential transport of p97 across the BBCEC monolayers. Apical-to-basal and basal-to-apical transport of [^125I]-p97 (25 nM) was measured for 2 hrs at 37° C. At the end of the experiment, [^125I]-p97 was assessed in the lower or upper chambers of each well by TCA precipitation (n=4).
as §2
FIG. 14 illustrates the stability of p97 and integrity of the BBCEC monolayers following p97 transcytosis. FIG. 14a, Transcytosis experiments were performed at 37° C. and 4° C. by adding p97 (1 mg/ml) to the upper compartment. At the end of the experiment, 50 μl from each lower chamber was used for SDS-polyacrylamide gel electrophoresis. After electrophoresis, the gels were stained with Coomassie Blue. A standard curve was also made with known amounts of recombinant p97 (0-2 μg); FIG. 14b. The gels were dried and scanned to quantify the amount of intact p97 that crossed the BBCEC monolayers at 37° C. and 4° C. (n=3); FIG. 14c, Effect of p97 on sucrose permeability of BBCE cell monolayers co-cultured with astrocytes. […]

B1: bovine holo-transferrin: bovine holo-transferrin (protein, UniProt Q29443 20-704, looked up)
Serotransferrin: DPERTVRWCTISTHEANKCASFRENVLRILESGPFVSCVKKTSHMDCIKAISNNEADAVTLDGGLVYEAGLKPNNLKPVVAEFHGTKDNPQTHYYAVAVVKKDTDFKLNELRGKKSCHTGLGRSAGWNIPMAKLYKELPDPQESIQRAAANFFSASCVPCADQSSFPKLCQLCAGKGTDKCACSNHEPYFGYSGAFKCLMEGAGDVAFVKHSTVFDNLPNPEDRKNYELLCGDNTRKSVDDYQECYLAMVPSHAVVARTVGGKEDVIWELLNHAQEHFGKDKPDNFQLFQSPHGKDLLFKDSADGFLKIPSKMDFELYLGYEYVTALQNLRESKPPDSSKDECMVKWCAIGHQERTKCDRWSGFSGGAIECETAENTEECIAKIMKGEADAMSLDGGYLYIAGKCGLVPVLAENYKTEGESCKNTPEKGYLAVAVVKTSDANINWNNLKDKKSCHTAVDRTAGWNIPMGLLYSKINNCKFDEFFSAGCAPGSPRNSSLCALCIGSEKGTGKECVPNSNERYYGYTGAFRCLVEKGDVAFVKDQTVIQNTDGNNNEAWAKNLKKENFEVLCKDGTRKPVTDAENCHLARGPNHAVVSRKDKATCVEKILNKQQDDFGKSVTDCTSNFCLFQSNSKDLLFRDDTKCLASIAKKTYDSYLGDDYVRAMTNLRQCSTSKLLEACTFHKP
modifications: iron-loaded (holo)
Accumulation in BBCE cells (BBCEC monolayers [1]): no significant accumulation
Reduction of apical-to-basal transport of [125I]-p97 (BBCEC monolayers [2]): had no impact
